Patent publication US20210363269A1 (ALX ONCOLOGY, published 2021)

T1: cynomolgus SIRP-α (cynomolgus monkey, UniProt Q5TFQ8 30-148 (human entry), limits assumed)
T1 construct: also called cyno1
T1 chain: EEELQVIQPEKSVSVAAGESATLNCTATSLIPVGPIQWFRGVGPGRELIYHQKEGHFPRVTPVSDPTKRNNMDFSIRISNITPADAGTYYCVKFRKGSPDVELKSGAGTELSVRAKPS

T2: BALBc mouse SIRP-α (mouse (BALB/c strain))
T2 chain: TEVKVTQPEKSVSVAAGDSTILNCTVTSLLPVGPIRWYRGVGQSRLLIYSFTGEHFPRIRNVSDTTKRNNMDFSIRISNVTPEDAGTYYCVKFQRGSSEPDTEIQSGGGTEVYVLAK


Legend:
Assay in all cases: SPR
human SIRP-α v1 [1] = target: T3, human SIRP-α v1 (human, UniProt P78324 31-149)
T3 construct: also called Human v1; Human V1
T3 sequence (P78324 31-149 limits assumed): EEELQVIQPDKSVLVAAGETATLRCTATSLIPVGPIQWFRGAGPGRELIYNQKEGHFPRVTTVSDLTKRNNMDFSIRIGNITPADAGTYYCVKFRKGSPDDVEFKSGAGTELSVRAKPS
Summary of the method: (§1)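 SIRP analytes at nominal, A280-based concentrations were injected in one-shot kinetic mode over purified antibodies that were amine-coupled to a GLC chip or captured by biotinylated Protein A on an NLC chip of a ProteOn XPR36. All runs were at 25° C in PBS pH 7.4 with 0.01% Tween-20. Apparent ka and kd came from a global simple Langmuir fit of double-referenced data, with KD as their ratio kd/ka.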

human SIRP-α v2 [2] = target: T4, human SIRP-α v2 (human)
T4 construct: also called Human v2; Human V2
T4 sequence (chain, as listed by the source limits assumed): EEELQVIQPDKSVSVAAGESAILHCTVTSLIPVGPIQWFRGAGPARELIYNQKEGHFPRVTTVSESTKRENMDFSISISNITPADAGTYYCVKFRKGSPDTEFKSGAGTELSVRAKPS
Summary of the method: as §1

cynomolgus SIRP-α = target: T1, cynomolgus SIRP-α
Summary of the method: as §1

BALBc mouse SIRP-α = target: T2, BALBc mouse SIRP-α
Summary of the method: as §1

human SIRPγ isoform 1 = target: T5, human SIRPγ isoform 1 (human, UniProt Q9P1W8 29-147)
T5 construct: also called Gamma; Human SIRPg
T5 sequence (Q9P1W8 29-147 limits assumed): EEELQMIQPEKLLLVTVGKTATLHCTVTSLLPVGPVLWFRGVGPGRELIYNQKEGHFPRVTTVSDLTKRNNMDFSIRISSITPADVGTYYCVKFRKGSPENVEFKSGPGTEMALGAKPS
Summary of the method: as §1

human SIRP-α v1 [3] = target: T3, human SIRP-α v1; remark: listed apart in the source
Summary of the method: as §1

human SIRP-α v2 [4] = target: T4, human SIRP-α v2; remark: listed apart in the source
Summary of the method: as §1

| koff (human SIRP-α v1 [1]) [s⁻¹] | koff (human SIRP-α v2 [2]) [s⁻¹] | koff (cynomolgus SIRP-α) [s⁻¹] | koff (BALBc mouse SIRP-α) [s⁻¹] | koff (human SIRPγ isoform 1) [s⁻¹] | Kd (human SIRP-α v1 [3]) [pM] | Kd (human SIRP-α v2 [4]) [pM] | Binder |
| --- | --- | --- | --- | --- | --- | --- | --- |
| 5.94e-05 | 0.000353 | 0.000375 | 0.000227 | 0.000169 |  |  | Hum3/AB25_HC_wt (antibody, V domains shown) VH: DVQLVESGGGVVRPGESLRLSCEASGFTFSSNAMSWVRQAPGKGLEWVAGISSGSDTYYGDSVKGRLTISRDNSKNILYLQMNSLTAEDTAVYYCARETWNHLFDYWGLGTLVTVSS VL: SYELTQPPSVSVSPGQTARITCSGGDYYSTYYAWYQQKPGQAPVTVIHSDDKRPSDIPERFSGSSSGTTVTLTISGVQAEDEADYYCGGYDGRTYINTFGGGTKLTVL |
| 0.000137 | 0.000438 | 0.000432 | 0.00231 | 0.00021 |  |  | Hum3/AB21_HC_wt (antibody, V domains shown) VH: DVQLVESGGGVVRPGESLRLSCAASGFTFSSNAMSWVRQAPGKGLEWLAGISAGGSDTYYPASVKGRFTISRDNSKNTLYLQMNTLTAEDTAVYYCARETWNHLFDYWGLGTLVTVSS VL: SYELTQPPSVSVSPGQTARITCSGGDYYSTYYAWYQQKPGQAPVTVIHSDDKRPSDIPERFSGSSSGTTVTLTISGVQAEDEADYYCGGYDGRTYINTFGGGTKLTVL |
| 0.000949 | 0.00281 | 0.00269 | 0.00346 | 0.000997 | < 1 |  | antibody 66 (antibody, V domains shown, also called AB66; S66) VH: DVQLVESGGGVVRPGESLRLSCAASGFTFSSYAMSWVRQAPGKGLEWLAGISAGGSDTYYIDSVKGRFTISRDNPKNSLYLQMSSLTAEDTAVYYCARETWNHLFDYWGLGTLVTVSS VL: ALTQPASVSANPGETVKITCSGGDYYSTYYAWYQQKSPGSAPVTVIHSDDKRPSDIPSRFSGSASGSAATLIITGVRVEDEAVYYCGGYDGRTYINTFGAGTTLTVL |
| 0.000707 | 0.00192 | 0.00229 | 0.00241 | 0.000902 | < 1 | < 1 | antibody 21 (antibody, V domains shown, also called AB21; S21) VH: DVQLVESGGGVVRPGESLRLSCAASGFTFSSNAMSWVRQAPGKGLEWLAGISAGGSDTYYPASVKGRFTISRDNSKNTLYLQMNTLTAEDTAVYYCARETWNHLFDYWGLGTLVTVSS VL: ALTQPASVSANPGETVKIACSGGDYYSYYYGWYQQKAPGSALVTVIYSDDKRPSDIPSRFSGSASGSTATLTITGVRAEDEAVYYCGGYDYSTYANAFGAGTTLTVL |

The next lines start with the binder.

| Binder | koff (human SIRP-α v1 [1]) [s⁻¹] | koff (human SIRP-α v2 [2]) [s⁻¹] | koff (cynomolgus SIRP-α) [s⁻¹] | koff (BALBc mouse SIRP-α) [s⁻¹] | koff (human SIRPγ isoform 1) [s⁻¹] | Kd (human SIRP-α v1 [3]) [pM] | Kd (human SIRP-α v2 [4]) [pM] |
| --- | --- | --- | --- | --- | --- | --- | --- |
| Hum1/AB25_HC_wt (antibody, V domains shown) VH: DVQLVESGGGVVRPGESLRLSCEASGFTFSSNAMSWVRQAPGKGLEWVAGISSGSDTYYGDSVKGRLTISRDNSKNILYLQMNSLTAEDTAVYYCARETWNHLFDYWGLGTLVTVSS VL: SYELTQPPSVSVSPGQTARITCSGGSYSSYYYAWYQQKPGQAPVTLIYSDDKRPSNIPERFSGSSSGTTVTLTISGVQAEDEADYYCGGYDQSSYTNPFGGGTKLTVL | 0.000133 | 0.000267 | 0.00033 | 0.00374 | 0.000203 |  |  |
| Hum1/AB66_HC_wt (antibody, V domains shown) VH: DVQLVESGGGVVRPGESLRLSCAASGFTFSSYAMSWVRQAPGKGLEWLAGISAGGSDTYYIDSVKGRFTISRDNPKNSLYLQMSSLTAEDTAVYYCARETWNHLFDYWGLGTLVTVSS VL: SYELTQPPSVSVSPGQTARITCSGGSYSSYYYAWYQQKPGQAPVTLIYSDDKRPSNIPERFSGSSSGTTVTLTISGVQAEDEADYYCGGYDQSSYTNPFGGGTKLTVL | 0.000124 | 0.000239 | 0.000303 | 0.00246 | 0.000136 |  |  |
| Hum1/AB27_HC_wt (antibody, V domains shown) VH: DVQLVESGGGVVRPGESLRLSCAVSGFRFSSYAMSWVRQAPGKGLEWVSGISSGGDTYYVDSVKGRFTISRDNSKNTLYLQVNSLTAEDTAIYYCARETWNHLFDYWGLGTLVTVSS VL: SYELTQPPSVSVSPGQTARITCSGGSYSSYYYAWYQQKPGQAPVTLIYSDDKRPSNIPERFSGSSSGTTVTLTISGVQAEDEADYYCGGYDQSSYTNPFGGGTKLTVL | 0.000192 | 0.000292 | 0.000379 | 0.0037 | 0.000178 |  |  |
